The values below come from the DeepSol protein solubility set.

This data set in a line: soluble on expression in E. coli; label from the status in PepcDB or PDB records.
For the sequence “IGDWGYSVSANLTTIKNKVKSLVQDGYSIIAGDKQQSYTMAGYPIGFFYGYKVAGVYQSQADIDASPENTLATVTPGDLKFADVNRDGKITPEDRTMIGNPTPDFTYGLSLGVNYKNWSLGIDMMGQHGNEIFRTWDNYNFAQFNYLSQRMDRWHGEGTSNSQPLLNSKHSINNLNSEYYIEDGSFFRIRNVQLAYSFDKALLAKIRLQALKVYVNIQNLKTWKHNTGYTPELGGSATTFGVDDGSYPVPAVYTFGINLTF”, the “soluble on expression in E. coli” value is reported as “not soluble”. The same measure for “STPELLSGHIPPGHIPKPIVMPDYVAKYPVIQTDDDRERYKAVFQDQFSEYKELSAEVQAILRKFDELDTVMSRLPHHSENRQEHERISRIHEEFRKKKNDPSFLEKKERCDYLKNKLSHIKQRIQEYDKVMNWDTQGYP”: “soluble”; for “MLAVHRPSSAVSDGDSVQIPMMIASFQKRFPSLSRDSTAARFHTHEVGPNQCCSAVIQEISAPISTVWSVVRRFDNPQAYKHFLKSCSVIGGDGDNVGSLRQVHVVSGLPAASSTERLDILDDERHVISFSVVGGDHRLSNYRSVTTLHPSPISGTVVVESYVVDVPPGNTKEETCDFVDVIVRCNLQSLAKIAENTAAESKKKMSL”: “not soluble”; for “MGSDKIHHHHHHAQNQDCAFFFPNQEGEQITRNCYTADGKLTNILVYRVDQAYEYPSGMEVVANYTFADAAGKTLNSGQMVARCSDGNFSMSMGDVATFPTALNMMNADVYMMGDLMNYPDAFSNPMNPGDDDEFDDGTLRLYQKGNKNNRAEISVFDREFVTTETVNTPAGAFYCTKVKYEMNIWTPKETIKGYGYEWYAPNIGIVRSEQYNNKKELQSYSVLERIKK”: “not soluble”.

As for “GGSVLAERAGIDPTAILRDFDRGRTSTLPDGRTLREWDIVAVDKDFEIAPGIIFKGWSYNGRIPGPTLWAREGDALRIHFTNAGAHPHTIHFHGVHRATMDGTPGIGAGSIAPGQSFTYEFDATPFGTHLYHCHQSPLAPHIAKGLYGGFIVEPKEGRPPADDEMVMVMNGYNTDGGDDNEFYSVNGLPFHFMDFPVKVKQHELVRIHLINVLEYDPINSFHIHGNFFHYYPTGTMLTPSEYTDTISQVQGQRGILELRFPYPGKFMFHAHKTEFAELGWMGFFEVSA”, the “soluble on expression in E. coli” value was “soluble”. The same measure for “MKFKDLRDFVQQLEQRGELKRIQMPISPVLEMTEICDRTLRAKGPALLFENPVGFDIPVLGNLFGTPERVAMGMGAEAVTELREIGKLLAFLKEPEPPKGLKDAWSKLPIFRKVIAMAPKVVKDAPCQEIVIEGDDVDLGMLPVQTCWPGDVAPLITWGLTVTKGPNKERQNLGIYRQQVIGRNKIIMRWLSHRGGALDFRDWCVKHPGEPYPVAVALGADPATILGAVTPVPDSLSEYAFAGLLRGSRTELIKCRGSNLQVPASAEIVLEGVIHPGEMANEGPYGDHTGYYNEVDSFPVLTVERITHRIKPIYHSTYTGRPPDEPAILGVALNEVFVPILQKQFPEIVDFYLPPEGCSYRMAVVTIKKQYPGHAKRVMLGVWSFLRQFMYTKFVIVTDDDINARDWNDVIWAITTRMDPKRDTVMIDNTPIDYLDFASPVSGLGSKMGLDATNKWPGETTREWGRAIVKDEATTRRVDEIWTQLGIDLEHHHHHH”: “not soluble”. As to “MATPTEKQILTLAQWFSPAYPVGAFAYSHGLEWSVEAGDVVDARTAQAWITDVLQHGAGWNDCLFIGSAYRAASLQELKNINDTALAFSASSERMMETRLQGEAFCGITASVWPVDLAGLCYPVAVGRAANLVGLPLTLSGQFYLHAFMANLVTAATRLVPLGQTEGQQIIRDLTPLCQAIADTALCANLSHLTSTAFLGDIAAMKHETQYSRMFRTLEHHHHHH”, the “soluble on expression in E. coli” value is “not soluble”.

Turning to “AIAEHKEVVLLLLLFLKSGQGEPLDDYVNTQGPSLFSVTKKQLGAGSREECAAKCEEDKEFTCRAFQYHSKEQQCVIMAENRKSSIIIRMRDAVLFEK”, the “soluble on expression in E. coli” value is recorded as “soluble”.

On to “MGSDKIHHHHHHMTHRRSKSVKIYLVGGAVRDSLLNLPIKDKDYMVVGATPEQMLQLGYRQVGKDFPVFLHPITQQEYALARTERKVGLGYGGFSCYASPDVTLEQDLLRRDLTINAIAQDEEGNLHDPFNGIGDLNARLLRHVSDAFIEDPLRVLRVARFAARFHHLGFQIADSTLQLMQQIAQSGELNALTPERVWQEVDKTLSGSNPEVFFEVLRQCGALKVLFPELDALFGIPQPEKWHPEIDTGLHTLMVLAQAAILTQDKAVRFAALVHDLGKAITPIEHLPKHHGHGQKGLPIIKALCERLRIPNEFRDLALIVSDQHQNVHQAFKLRPETIIKIFDKADFWRKPERLKQLVQACIADMRGRTGFEHQDYPQGEYFSQCFAVASNVNIKAIIQAGFKGEEIKQILHMHRIDAVGQLKRDKQNAVD”, for which the “soluble on expression in E. coli” value is on record as “not soluble”. For “MDYRVLLYYKYTTIDDPELFATEHLAFCKDLELKGRILVSTEGINGTVSGTVEATDKYMEALKNDARFQGITFKVDEAEGHAFKKMHVRPRQEIVALDLEDDVNPRELTGNYLSPKEFREALLSDDTVVIDARNDYEYDLGHFRGAVRPDITRFRDLPDWIKENKEQFMDKKIVTYCTGGIRCEKFSGYLLKEGFEDVSQLEGGIATYGKDPETKGEFWDGKMYVFDERISVEVNHVDKTVVGKEWFDGTPCERYINCSNPECNKQILVSEENEARYLGACSHECAKHENNRYVKKHNISDEEKAKRLENFKELVKLEHHHHHH” the value was “not soluble”; for “MGSDKIHHHHHHMALIHEIITSENIKGFYNAKNENVENTLGEKAFPPKQQLGLKLSFIKGAAGKPVTLKAAAFDTKVPLRDRMAVELIDEEMPFFKEAMLVKEADRQQLNMLAQTKNNELIDTILASIYNDQATLIAGAKARLEAMRMEVLSKGKIHIQSNGVMKDIDYGLAEDQTTKPDAKWDSAGTATPLKDIEKAIEKMAERGFVPEAIIMNSKTFSLIKNAESTLDVVKPMAPNGAAVTKRDLNTYLEDELQIKVILKDGMFVGDDGESRKYFPDGFATLVPNGNLGYTVFGTTPEQSDLLGGEATDANVSIVETGIAITTTKTTDPVNVQTKVSMIALPSFERLEEVHIINGLQDA”, “not soluble”; for “AETIVMASTTSTEQSGLFGHLLPAFKKASGIDIKVVAQGTGQALDMARRGDADVLFVHDQVAEEKFVADGYAVKRYPVMYNDFILVGPAKDPAGVKGNDIVAALGKLAKDNADFISRGDKSGTHAAELRFWKQTGSDSKGSGYKECGCGMGPALNMGSSMNAYVLSDRGTWLSFKNPGELKILVEGDKRLFNQYGVMVVNPAKFPHVKAKAAQQFVDWVTSKAGQDAIASYQV”, “not soluble”. In the case of “MNRYITRGIDNNLPIILQQQLWKLVAQRENEQSKELEAIDYFHIFQFNMHNDQLCIKHKQERPEYIKTHKANYSKAINIKKVYIIREDDVDLSYYVMLLPEEYAAALEHHHHHH”, the “soluble on expression in E. coli” value is “soluble”. Take “MGSDKIHHHHHHMSDIHKKIKKKQFAPLYLLYGTEAFFINETIKLITTEALEEEDREFNVVTYDLEEAYLEDVVEDARTLPFFGERKVLLIKSPLFLTSQKEKLEQNIKILEEYIGEPSPFSILVFVAPYEKLDERKKITKLLKKTADVVEANAMQVQDVQKWIVARADEVHVHIDHAAVSLLLELVGSNVTMLAKEMDKLTLYVGMGGDITPKLVAELVPKSVEQNVFALTEKVVKKDIAGAMQILDGLFTQQEEPIKLLALLVSQFRLLHQVKELQQRGYGQNQIASHIGVHPYRVKLAMNQTKFFSFEELKKVIMELAEADYSMKTGKMDKKLVLEFFLMRLNHM”: the “soluble on expression in E. coli” value is given as “not soluble”. The same measure for “MGSDKIHHHHHHIEPCADYTTRELDLRNEIKGAEELEEIKYEISKSFPMDELRFPKYWSDLSNQDVLVSEFIEGKSLEEGIEEKSLSWDTLLRLFRIHGAYLFGIGTFHGDLHPGNCIIDNDGKFVFIDNGAICHAPSKVNLSLFQFFENLSSNDFDAAFDSLLGLSDSPLKSTNLDNYYKEMNKIYDGFQNQTVGEKSLTRIMMQTVQAAVEKAGADFGEEAFPIIRALMYLDGLVLRTHPDVKLIESMGPYLEEFRLGLDLENKIKNV”: “not soluble”; for “MPTNTFFHLPEEKQQRLLDAAQIEFSRHSLQEASIANIVKLAGIPRGSFYQYFENKEDLYFYYFATLRKNSERDLEKQIIAENGDLIEAMDVYFSKMIVEVLTGENASFYRNLFVNMDYRASRRVTDNLATGEEEKNRKQHCHKHRGRKGHAAYAEHLYQIIDHSKLTIETPKEFTWFMQTAMHAVFSTIVDGYRQQRENTAYDSTEAVKQLKMKLSWLKNGAYK”: “not soluble”. For “SIKNGILYLEDPVNHEWYPHYFVLTSSKIYYSEETSSDQGNEDEEEPKEASGSTELHSSLEVLFQGPNPAILEPEREHLDENSPLGDLLRGVLDVPACQIAIRPEGKNNRLFVFSISMPSVAQWSLDVAADSQEELQDWVKKIREVAQTA” the value was “soluble”. The same measure for “IEYETHFFNEVTYLVDYLKVKALMMIPKNKKDIKRIVIYLRGGKGQVGRVRAARLMQFANEYTLVIGPYYRGNNGSEGRDEFYRGDLNDVTHLIRLLNQNYPSAFIHMVGFSRGGLQGLLTFNDLPVDSYMIWGGVSDIHLMYEERVDLRGMLRRMVGHPKKDAKAYKSRDAMQFIKKDSPPILIIHGGKDIQVGIHQAYDLEKKLKSKGIYYQTYYQLDEGHVPRPPAMRDVIRYIHQWMNNVENKN”: “not soluble”; for “MAPHPEAAALLARSHRLGADPRNTNYAGGNASAKGTATDPVTGGDVELMWVKGSGGDLGTLTEAGLAVLRLDRLHALKGVYPGVEREDEMVAAFDYCLHGKGGAAPSIDTAMHGLVDAAHVDHLHPDSGIALACAADGEKLTAECFGDSVAWVPWRRPGFQLGLDIAAVKEANPQTIGCVLGGHGITAWGATAEECERNSLHIIRTAEAFLAERGKAEPFGPVIEGYAALEHHHHHH”: “not soluble”.

Consider “MGSDKIHHHHHHMYLKVYKEDVIEGLQKAANIIPAKTGAAYLRSIWLNAADGTLSVMATDSNIEFRGTYTAEVTEPGLAGVQGRAFVDLLRKLPAGEIVLQLDAEANVLRIEQGRRKYKLPVNDPVWFQNFSDFPADGAVVWSGDFLQELIDRIAFCISDEDAVEAIACLFMKPVAEGRIEACGLNGHQFAMLRFLHDDLHAKLPAEGVLVQKKYLGELKKWLGADEIELNISEKRMHLRTGDGRETFSLPLSSYQYPDYMNFIAKLQGEGVSNLEVDRKEGMDALDRLQIFNSDNNRCTYFDLSGGEVVLTAQGQDVGSASESLEASYDGDIRRIAFPTRNLIDIMNHYQSGRLRLTLTGAEGPCGISGEEDPEYQVIVMPMKIVEETYYSEEEV”, for which the “soluble on expression in E. coli” value was “not soluble”. For “MHMSEANHKNIVVVGAGIIGTSVATMLSKVSPNWHIDMFERLEGAGIESSNENNNAGTGHAALCELNYTVEQDDGSIDASKAQEINEQFELSRQFWGNLVKNGDISNPEEFIQPLPHISFVMGPTNVNFLRKRYETLKTLPMFDTIEYTEDMETMRKWMPLMMENREPGHQMAASKIDEGTDVNYGALTRKLAHYLEQKSNVSLKYNHDVVDLTQREDGKWEVVVENRETKEKVTKIADKVFIGAGGHSIPLLQKSGVKQREHLGGFPISGQFLRCTNPDIIKQHAAKVYSKEPQGKPPMTVPHLDTRYINGKQTLLFGPYANIGPKFLKFGSNLDLFESIKPYNITTMLASAVKNVPLIKYSIDQMIKTKEGCMNYLRTFIPDAKDEDWELYTAGKRVQVIKDSEQHGKGFVVFGTEVVNSDDNSMIALLGESPGASTSLSVVLEVLEKNFADDKEAWEPVVKEMVPTYGRSLINDEKLMRETRRETSKNLHLNRMAGDPLEHHHHHH” the value was “soluble”; for “MHTKPPIERIMYIELRTSLELFRSDLVDLEALANAAKEALEQLPYIPKEPCGKGEDDPLSGPESALRTGRLCGLVCCTATAAEGALSTCSKLIDWAYENEPEGVDDAVLVDDIDDDDDDDDDGSNGANGGGGANGSGNGSNGSGNGSPPDGGVEGAAPSLDADELAQARPSRGGIALDLAQCATTTDRPVA”, “not soluble”.
